# From paper PMC6925134
# Tests used:
# [1] = biological target: RNF208 (UniProt Q9H0X6); test: anti-Flag co-IP, Myc immunoblot; details: reference: wild type; sites S39
# [2] = biological target: RNF208 (UniProt Q9H0X6); test: anti-Flag co-IP, immunoblot; details: reference: wild type; sites S39
substance,measurement,setting,value
Vimentin (from UniProt P08670) S39A,binding against the reference,[1],lost
same,binding against the reference,[2],weaker
